According to paper PMC3904261 (British Journal of Pharmacology, 2013):
Blank lines part the entries; values can stand above or below the molecule they belong to. Bridge positions count the residues as written; N and C are the ends. Ends that are not written are not given here.

Key:
[1] = target: T1, AMY1(a) receptor (Homo sapiens, UniProt O60894+P30988); assay: cAMP production in Cos 7 cells via the AMY1(a) receptor; format: cell-based
T1 construct: HA; expressed in transfected cells; host or cells: Cos 7
Method: (§1) SK-N-MC cells were grown in DMEM/F12 medium supplemented with 10% fetal calf serum as described previously (Poyner et al., [1998]). […] Production of cAMP in SK-N-MC cells for all analogues except [[…]]-hαCGRP was by a radioreceptor assay, as described previously (Poyner et al., [1998]). […] For [[…]]-hαCGRP, a different clone of SK-N-MC cells was used and cAMP production was measured via AlphaScreen (Perkin Elmer, Wellesley, MA, USA), as described previously ([…] et al., [2010]). This assay was also used to investigate the action of all derivatives at the AMY1(a) receptor and other experiments using Cos 7 cells. […] GraphPad Prism 5.00 or 6.00 (GraphPad Software Inc., San Diego, CA, USA) was used for data fitting. Concentration-response curves were fitted to a sigmoidal function with Hill slope constrained to unity to obtain pEC50 and maximum responses (Emax) values. Displacement curves were analysed to obtain pIC50 values. Schild plots were fitted by linear regression to obtain slope and intercepts. pEC50 and pIC50 values were compared with that of human αCGRP using Dunnett's test with either a normal or repeated measures one-way ANOVA, as appropriate.

[2] = target: T2, CGRP receptor (Homo sapiens, UniProt O60894+Q16602); assay: β-arrestin 2 translocation in CHO-K1 cells (PathHunter eXpress); format: cell-based; parameters: host or cells: CHO-K1 (PathHunter eXpress β-arrestin kit)
Method: (§2) GraphPad Prism 5.00 or 6.00 (GraphPad Software Inc., San Diego, CA, USA) was used for data fitting. Concentration–response curves were fitted to a sigmoidal function with Hill slope constrained to unity to obtain pEC50 and maximum responses (Emax) values. Displacement curves were analysed to obtain pIC50 values. Schild plots were fitted by linear regression to obtain slope and intercepts. pEC50 and pIC50 values were compared with that of human αCGRP using Dunnett's test with either a normal or repeated measures one-way ANOVA, as appropriate.

[3] = target: T2, CGRP receptor; assay: Displacement of 125I-CGRP binding to SK-N-MC cell membranes; parameters: relative expression levels of the receptors (endogenous vs. overexpressed); endogenous in cells; host or cells: SK-N-MC cells (ECACC clone; ATCC clone for [Cys5]-CGRP); conditions: 125I-CGRP binding, SK-N-MC membranes; listed as [Cys^5]-CGRP
Method: as §2

[4] = target: T2, CGRP receptor; assay: cAMP production in SK-N-MC cells; format: cell-based; parameters: relative expression levels of the receptors (endogenous vs. overexpressed); endogenous in cells; host or cells: SK-N-MC cells (ECACC clone; ATCC clone for [Cys5]-CGRP)
Method: (§3) Production of cAMP in SK-N-MC cells for all analogues except [[…]]-hαCGRP was by a radioreceptor assay, as described previously (Poyner et al., [1998]). […] For [[…]]-hαCGRP, a different clone of SK-N-MC cells was used and cAMP production was measured via AlphaScreen (Perkin Elmer, Wellesley, MA, USA), as described previously ([…] et al., [2010]). This assay was also used to investigate the action of all derivatives at the AMY1(a) receptor and other experiments using Cos 7 cells. […] GraphPad Prism 5.00 or 6.00 (GraphPad Software Inc., San Diego, CA, USA) was used for data fitting. Concentration-response curves were fitted to a sigmoidal function with Hill slope constrained to unity to obtain pEC50 and maximum responses (Emax) values. Displacement curves were analysed to obtain pIC50 values. Schild plots were fitted by linear regression to obtain slope and intercepts. pEC50 and pIC50 values were compared with that of human αCGRP using Dunnett's test with either a normal or repeated measures one-way ANOVA, as appropriate.

[5] = target: T2, CGRP receptor; assay: cAMP production in Cos 7 cells transfected with CLR and RAMP1; format: cell-based; parameters: relative expression levels of the receptors (endogenous vs. overexpressed); endogenous in cells; host or cells: SK-N-MC cells (ECACC clone; ATCC clone for [Cys5]-CGRP); conditions: read-out: Emax, % of that of CGRP, AlphaScreen
Method: as §1

[6] = target: T2, CGRP receptor; assay: Antagonism of CGRP-stimulated cAMP production in SK-N-MC cells; format: cell-based; parameters: relative expression levels of the receptors (endogenous vs. overexpressed); endogenous in cells; host or cells: SK-N-MC cells (ECACC clone; ATCC clone for [Cys5]-CGRP)
Method: as §3

[7] = test system: porcine iris ciliary body; conditions: ref Heino et al., 1998; cited from earlier work
From the text: Similarly, substitution of Thr-6 ...

[8] = target: AMY_(1(a)) receptor (human HA-tagged CT (a) receptor with human myc-tagged RAMP1) (human) (UniProt O60894)
[9] = target: T3, CGRP receptor (calcitonin receptor-like receptor in complex with receptor activity-modifying protein 1) (human (endogenous in SK-N-MC), UniProt Q16602 23-461; O60894 27-148); assay: cell-based or functional assay
[10] = target: T3, CGRP receptor (calcitonin receptor-like …); assay: cell-based or functional assay; remark: listed apart in the source
[11] = target: T3, CGRP receptor (calcitonin receptor-like …); assay: radioligand binding; displacement of ^125I-CGRP from SK-N-MC cell membranes by unlabelled peptides, microcentrifugation-based binding assay; [Cys^5]-CGRP and its control on another batch of SK-N-MC cells; conditions: one partner purified
[12] = AlphaScreen, means ± SEM, n = 3–6, listed as [Cys^6]
[13] = 2 h stimulation, means ± SEM, n = 3, listed as [Cys^6]
[14] = radioreceptor assay, approx. 10 min, means ± SEM, n = 3–6, listed as [Cys^6]

T1 sequence (P30988 25-474): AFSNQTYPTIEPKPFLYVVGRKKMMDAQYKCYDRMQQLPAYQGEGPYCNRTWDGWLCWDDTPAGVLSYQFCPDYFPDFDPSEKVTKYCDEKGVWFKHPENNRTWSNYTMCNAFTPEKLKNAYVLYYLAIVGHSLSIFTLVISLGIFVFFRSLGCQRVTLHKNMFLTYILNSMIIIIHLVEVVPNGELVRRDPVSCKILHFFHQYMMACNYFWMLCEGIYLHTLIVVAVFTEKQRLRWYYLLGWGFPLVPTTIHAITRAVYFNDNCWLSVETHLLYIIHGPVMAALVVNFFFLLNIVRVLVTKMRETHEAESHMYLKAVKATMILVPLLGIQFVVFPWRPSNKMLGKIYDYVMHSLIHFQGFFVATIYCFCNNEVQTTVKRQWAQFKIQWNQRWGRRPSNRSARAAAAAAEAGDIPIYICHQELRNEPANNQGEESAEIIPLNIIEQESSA
T1 sequence (O60894 27-148): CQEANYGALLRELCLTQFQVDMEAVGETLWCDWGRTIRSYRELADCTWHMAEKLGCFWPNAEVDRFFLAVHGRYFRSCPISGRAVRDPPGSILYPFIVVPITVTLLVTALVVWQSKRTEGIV
T3 sequence (Q16602 23-461, chain 1 of 2): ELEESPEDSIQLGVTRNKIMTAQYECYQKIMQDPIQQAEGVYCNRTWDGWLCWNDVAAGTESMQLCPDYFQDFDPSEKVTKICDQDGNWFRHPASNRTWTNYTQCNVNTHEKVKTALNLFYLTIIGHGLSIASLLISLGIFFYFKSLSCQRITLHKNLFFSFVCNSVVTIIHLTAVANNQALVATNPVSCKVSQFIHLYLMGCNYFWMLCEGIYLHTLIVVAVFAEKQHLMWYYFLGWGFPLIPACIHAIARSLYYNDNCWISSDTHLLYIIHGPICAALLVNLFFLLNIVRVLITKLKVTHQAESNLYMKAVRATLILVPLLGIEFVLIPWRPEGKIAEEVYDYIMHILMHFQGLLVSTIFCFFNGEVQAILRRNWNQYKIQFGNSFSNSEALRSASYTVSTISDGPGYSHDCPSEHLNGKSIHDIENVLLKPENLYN
T3 sequence (O60894 27-148, chain 2 of 2): as the sequence (O60894 27-148) above
T2 sequence (Q16602 23-461): as the sequence (Q16602 23-461, chain 1 of 2) above
T2 sequence (O60894 27-148): as the sequence (O60894 27-148) above
Chain of AMY_(1(a)) receptor (human HA-tagged CT (a) receptor with human myc-tagged RAMP1) (human) (O60894 whole entry, looked up): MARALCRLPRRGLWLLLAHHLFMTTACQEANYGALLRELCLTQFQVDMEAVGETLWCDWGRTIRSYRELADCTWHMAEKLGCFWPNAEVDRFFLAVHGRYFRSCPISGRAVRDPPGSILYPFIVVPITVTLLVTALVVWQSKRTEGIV

Molecule: [Val^6]-CGRP: CGRP analogue substituted at position 6, from Heino et al., 1998 (ACDTAVCVTHRLAGLLSRSGGVVKNNFVPTNVGSKAF-NH2; disulfide 2-7; ends not checked; UniProt P06881 83-119, looked up, variant T6V)
stimulation of cAMP production [7]: inactive

Molecule: ACDAATCVTHRLAGLLSRSGGVVKNNFVPTNVGSKAF-NH2 (disulfide 2-7) [[Ala^4]-CGRP]
Emax (% CGRP), cAMP production in Cos 7 cells with the AMY (1(a)) receptor [8]: 161 % CGRP | pEC50, cAMP production in Cos 7 cells with the AMY (1(a)) receptor [8]: 8.57 | pEC50, cAMP production in the second clone of SK-N-MC cells, AlphaScreen (control experiment) [9]: 7.58 | Emax (% CGRP), cAMP production in SK-N-MC cells [10]: 100 % CGRP | Emax (% CGRP), β-arrestin 2 translocation in CHO-K1 cells expressing the human CGRP receptor [10]: 73 % CGRP | pEC50, cAMP production in SK-N-MC cells [10]: 7.43 | pEC50, β-arrestin 2 translocation in CHO-K1 cells expressing the human CGRP receptor [10]: 8.42 | pKi [11]: 9.4

Molecule: ACDTAACVTHRLAGLLSRSGGVVKNNFVPTNVGSKAF-NH2 (disulfide 2-7) [[Ala^6]-CGRP]
Emax (% CGRP), cAMP production in Cos 7 cells with the AMY (1(a)) receptor [8]: 42 % CGRP | pEC50, cAMP production in Cos 7 cells with the AMY (1(a)) receptor [8]: 7 | pEC50, cAMP production in the second clone of SK-N-MC cells, AlphaScreen (control experiment) [9]: 7.39 | Emax (% CGRP), cAMP production in SK-N-MC cells [10]: 72 % CGRP | Emax (% CGRP), β-arrestin 2 translocation in CHO-K1 cells expressing the human CGRP receptor [10]: 43 % CGRP | pEC50, cAMP production in SK-N-MC cells [10]: 6.59 | pEC50, β-arrestin 2 translocation in CHO-K1 cells expressing the human CGRP receptor [10]: 7.74 | pKi [11]: 8.57

The next lines start with the values.

fold less potent than CGRP, cAMP at AMY1(a) receptor [1]: 75 fold | stimulation of cAMP production at AMY1(a) receptor [1]: no consistent stimulations | AMY1(a) receptor-stimulated cAMP Emax (% CGRP) CGRP analogue [1, 12]: Undetectable | AMY1(a) receptor-stimulated cAMP pEC50 CGRP analogue [1, 12]: Undetectable | β-Arrestin (CHO-K1) Emax (% CGRP) CGRP analogue [2, 13]: Undetectable | β-Arrestin (CHO-K1) pEC50 CGRP analogue [2, 13]: Undetectable | Emax ([2]; CHO-K1, CHO-K1 cells, compared with CGRP, read-out: reduction of Emax, β-arrestin 2 translocation): 45% | decrease in potency for β-arrestin 2 translocation compared with CGRP ([2]; CHO-K1 cells): ninefold | stimulation of β-arrestin 2 translocation ([2]; CHO-K1 cells, [Asp6] and [Lys6] at concentrations of up to 1 μM): unable to stimulate | decrease in affinity compared with CGRP [3]: > 270 fold | decrease in potency on cAMP compared with CGRP ([4]; SK-N-MC cells): over 100 fold | stimulation of cAMP production ([4]; SK-N-MC cells, [Asp6] and [Lys6] at concentrations of up to 10 μM): unable to stimulate | cAMP (SK-N-MC) Emax (% CGRP) CGRP analogue [4, 14]: Undetectable | cAMP (SK-N-MC) pEC50 CGRP analogue [4, 14]: Undetectable | Emax [5]: 90 ± 8% | slope of Schild plot ([6]; listed as [Cys^5]-CGRP): 1.33 ± 0.30 | slope of Schild plot ([6]; listed as [Cys^6]-CGRP): 0.98 ± 0.20
Molecule: CC(C)C[C@H](NC(=O)CNC(=O)[C@H](C)NC(=O)[C@H](CC(C)C)NC(=O)[C@H](CCCNC(=N)N)NC(=O)[C@H](Cc1c[nH]cn1)NC(=O)[C@@H](NC(=O)[C@@H](NC(=O)[C@@H]1CSSC[C@H](NC(=O)[C@@H](N)CS)C(=O)N[C@@H](CC(=O)O)C(=O)N[C@@H]([C@@H](C)O)C(=O)N[C@@H](C)C(=O)N[C@@H]([C@@H](C)O)C(=O)N1)C(C)C)[C@@H](C)O)C(=O)N[C@@H](CC(C)C)C(=O)N[C@@H](CO)C(=O)N[C@@H](CCCNC(=N)N)C(=O)N[C@@H](CO)C(=O)NCC(=O)NCC(=O)N[C@H](C(=O)N[C@H](C(=O)N[C@@H](CCCCN)C(=O)N[C@@H](CC(N)=O)C(=O)N[C@@H](CC(N)=O)C(=O)N[C@@H](Cc1ccccc1)C(=O)N[C@H](C(=O)N1CCC[C@H]1C(=O)N[C@H](C(=O)N[C@@H](CC(N)=O)C(=O)N[C@H](C(=O)NCC(=O)N[C@@H](CO)C(=O)N[C@@H](CCCCN)C(=O)N[C@@H](C)C(=O)N[C@@H](Cc1ccccc1)C(N)=O)C(C)C)[C@@H](C)O)C(C)C)C(C)C)C(C)C [[Cys^1]]

Emax (% CGRP), cAMP production in Cos 7 cells with the AMY (1(a)) receptor [8]: 50 % CGRP | pEC50, cAMP production in Cos 7 cells with the AMY (1(a)) receptor [8]: 7.78 | pEC50, cAMP production in Cos 7 cells transfected with CLR and RAMP1 [9]: 7.9 | Emax (% CGRP), β-arrestin 2 translocation in CHO-K1 cells expressing the human CGRP receptor [10]: 55 % CGRP | pEC50, cAMP production in SK-N-MC cells (other clone of cells, AlphaScreen; footnote: no response seen in five experiments) [10]: 7.18 | pEC50, β-arrestin 2 translocation in CHO-K1 cells expressing the human CGRP receptor [10]: 8.25 | pKi [11]: 8
B1: [Cys^5]-CGRP (peptide)
chain: ACDTCTCVTHRLAGLLSRSGGVVKNNFVPTNVGSKAF-NH2
modifications: disulfide 2-7; N-terminus assumed
SMILES: CC(C)C[C@H](NC(=O)CNC(=O)[C@H](C)NC(=O)[C@H](CC(C)C)NC(=O)[C@H](CCCNC(=N)N)NC(=O)[C@H](Cc1c[nH]cn1)NC(=O)[C@@H](NC(=O)[C@@H](NC(=O)[C@@H]1CSSC[C@H](NC(=O)[C@H](C)N)C(=O)N[C@@H](CC(=O)O)C(=O)N[C@@H]([C@@H](C)O)C(=O)N[C@@H](CS)C(=O)N[C@@H]([C@@H](C)O)C(=O)N1)C(C)C)[C@@H](C)O)C(=O)N[C@@H](CC(C)C)C(=O)N[C@@H](CO)C(=O)N[C@@H](CCCNC(=N)N)C(=O)N[C@@H](CO)C(=O)NCC(=O)NCC(=O)N[C@H](C(=O)N[C@H](C(=O)N[C@@H](CCCCN)C(=O)N[C@@H](CC(N)=O)C(=O)N[C@@H](CC(N)=O)C(=O)N[C@@H](Cc1ccccc1)C(=O)N[C@H](C(=O)N1CCC[C@H]1C(=O)N[C@H](C(=O)N[C@@H](CC(N)=O)C(=O)N[C@H](C(=O)NCC(=O)N[C@@H](CO)C(=O)N[C@@H](CCCCN)C(=O)N[C@@H](C)C(=O)N[C@@H](Cc1ccccc1)C(N)=O)C(C)C)[C@@H](C)O)C(C)C)C(C)C)C(C)C
